Test results reported in article PMC4260750.

Biological target: ADAM10 (endogenous, rat brain) (UniProt Q10743)
Assay: GST pull-down from rat brain homogenate
Conditions: reference: GST-SAP97wt, PKC-treated; sites T629

SAP97 (GST-SAP97 and YFP-SAP97 constructs) (from UniProt Q62696) GST-SAP97-T629A, PKC-treated
binding against the reference: weaker
